The labels stand for the following.
B1: Complement factor H (Homo sapiens), P08603 (parent)
chain: MRLLAKIICLMLWAICVAEDCNELPPRRNTEILTGSWSDQTYPEGTQAIYKCRPGYRSLGNVIMVCRKGEWVALNPLRKCQKRPCGHPGDTPFGTFTLTGGNVFEYGVKAVYTCNEGYQLLGEINYRECDTDGWTNDIPICEVVKCLPVTAPENGKIVSSAMEPDREYHFGQAVRFVCNSGYKIEGDEEMHCSDDGFWSKEKPKCVEISCKSPDVINGSPISQKIIYKENERFQYKCNMGYEYSERGDAVCTESGWRPLPSCEEKSCDNPYIPNGDYSPLRIKHRTGDEITYQCRNGFYPATRGNTAKCTSTGWIPAPRCTLKPCDYPDIKHGGLYHENMRRPYFPVAVGKYYSYYCDEHFETPSGSYWDHIHCTQDGWSPAVPCLRKCYFPYLENGYNQNYGRKFVQGKSIDVACHPGYALPKAQTTVTCMENGWSPTPRCIRVKTCSKSSIDIENGFISESQYTYALKEKAKYQCKLGYVTADGETSGSITCGKDGWSAQPTCIKSCDIPVFMNARTKNDFTWFKLNDTLDYECHDGYESNTGSTTGSIVCGYNGWSDLPICYERECELPKIDVHLVPDRKKDQYKVGEVLKFSCKPGFTIVGPNSVQCYHFGLSPDLPICKEQVQSCGPPPELLNGNVKEKTKEEYGHSEVVEYYCNPRFLMKGPNKIQCVDGEWTTLPVCIVEESTCGDIPELEHGWAQLSSPPYYYGDSVEFNCSESFTMIGHRSITCIHGVWTQLPQCVAIDKLKKCKSSNLIILEEHLKNKKEFDHNSNIRYRCRGKEGWIHTVCINGRWDPEVNCSMAQIQLCPPPPQIPNSHNMTTTLNYRDGEKVSVLCQENYLIQEGEEITCKDGRWQSIPLCVEKIPCSQPPQIEHGTINSSRSSQESYAHGTKLSYTCEGGFRISEENETTCYMGKWSSPPQCEGLPCKSPPEISHGVVAHMSDSYQYGEEVTYKCFEGFGIDGPAIAKCLGEKWSHPPSCIKTDCLSLPSFENAIPMGEKKDVYKAGEQVTYTCATYYKMDGASNVTCINSRWTGRPTCRDTSCVNPPTVQNAYIVSRQMSKYPSGERVRYQCRSPYEMFGDEEVMCLNGNWTEPPQCKDSTGKCGPPPPIDNGDITSFPLSVYAPASSVEYQCQNLYQLEGNKRITCRNGQWSEPPKCLHPCVISREIMENYNIALRWTAKQKLYSRTGESVEFVCKRGYRLSSRSHTLRTTCWDGKLEYPTCAKR
partner: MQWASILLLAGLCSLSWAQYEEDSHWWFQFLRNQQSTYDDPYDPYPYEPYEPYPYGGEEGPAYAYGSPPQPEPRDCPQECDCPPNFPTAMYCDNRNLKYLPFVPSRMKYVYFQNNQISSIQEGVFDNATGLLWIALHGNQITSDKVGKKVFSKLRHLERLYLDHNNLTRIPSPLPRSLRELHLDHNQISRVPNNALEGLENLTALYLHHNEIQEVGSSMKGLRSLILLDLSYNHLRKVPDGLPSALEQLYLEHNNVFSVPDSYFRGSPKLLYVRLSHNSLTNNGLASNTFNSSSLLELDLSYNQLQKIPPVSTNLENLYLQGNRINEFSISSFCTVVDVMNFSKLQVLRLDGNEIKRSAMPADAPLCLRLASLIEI
B2: Complement factor H (Homo sapiens), P08603 (parent)
chain: B1 chain
partner: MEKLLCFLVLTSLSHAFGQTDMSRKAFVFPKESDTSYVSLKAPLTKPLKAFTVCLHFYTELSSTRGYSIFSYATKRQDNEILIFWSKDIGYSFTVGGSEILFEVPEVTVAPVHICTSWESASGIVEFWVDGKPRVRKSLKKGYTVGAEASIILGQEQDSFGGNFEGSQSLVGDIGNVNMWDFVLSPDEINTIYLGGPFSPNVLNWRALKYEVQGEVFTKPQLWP

Data on 2 variants can be found in IntAct's records for PubMed 17293598.

One assay covers variants of B1. The settings on record: with fmod_bovin FMOD.
Consider Y402H, for which the “effect of a mutation on the interaction” value is listed as “decreasing interaction strength”.

Variants of B2 are the subject of another assay. The settings on record: with crp_human CRP.
On to Y402H, for which the “effect of a mutation on the interaction” value is reported as “decreasing interaction strength”.
